From IntAct's records for PubMed 18029035

B1: Coiled-coil domain-containing protein 50 (Homo sapiens), Q8IVM0 (parent)
chain: MAEVSIDQSKLPGVKEVCRDFAVLEDHTLAHSLQEQEIEHHLASNVQRNRLVQHDLQVAKQLQEEDLKAQAQLQKRYKDLEQQDCEIAQEIQEKLAIEAERRRIQEKKDEDIARLLQEKELQEEKKRKKHFPEFPATRAYADSYYYEDGGMKPRVMKEAVSTPSRMAHRDQEWYDAEIARKLQEEELLATQVDMRAAQVAQDEEIARLLMAEEKKAYKKAKEREKSSLDKRKQDPEWKPKTAKAANSKSKESDEPHHSKNERPARPPPPIMTDGEDADYTHFTNQQSSTRHFSKSESSHKGFHYKH

Variants of: B1
Details: with ubb_human UBB

| effect of a mutation on the interaction | Variant |
| --- | --- |
| decreasing interaction | MAEVSIDQSKLPGVKEVCRDFAVLEDHTLAHSLQEQEIEHHLASNVQRNRLVQHDLQVAKQLQEEDLKAQAQLQKRYKDLEQQDCEIAQEIQEKLAIEAERRRIQEKKDEDIARLPQEKELQEEKKRKKHFPEFPATRAYADSYYYEDGGMKPRVMKEAVSTPSRMAHRDQEWYDAEIARKLQEEELLATQVDMRAAQVAQDEEIARLLMAEEKKAYKKAKEREKSSLDKRKQDPEWKPKTAKAANSKSKESDEPHHSKNERPARPPPPIMTDGEDADYTHFTNQQSSTRHFSKSESSHKGFHYKH [L116P] |
